{"source": "paper PMC5915679", "key": {"[1]": {"biological_target": "hGW182 ABD (455–841), tandem tryptophans of motif-2 and the hook mutated to alanine (human) (UniProt Q8NDV7)", "test": "pull-down"}, "[2]": {"biological_target": "hGW182 ABD (455–841), tandem tryptophans of motif-1 and the hook mutated to alanine (human) (UniProt Q8NDV7)", "test": "pull-down"}, "[3]": {"biological_target": "hGW182 ABD (455–841) with motif-1 and the hook deleted (human) (UniProt Q8NDV7)", "test": "SEC"}, "[4]": {"biological_target": "hGW182 ABD (455–841) with motif-1 deleted (human) (UniProt Q8NDV7)", "test": "SEC"}, "[5]": {"biological_target": "hGW182 ABD (455–841) with motif-2 and the hook deleted (human) (UniProt Q8NDV7)", "test": "SEC"}, "[6]": {"biological_target": "hGW182 ABD (455–841) with the hook deleted (human) (UniProt Q8NDV7)", "test": "SEC"}, "[7]": {"biological_target": "hGW182 ABD (455–841) with motif-1 and motif-2 deleted (human) (UniProt Q8NDV7)", "test": "SEC"}}}
{"substance": "human Argonaute-2 (from UniProt Q9UKV8 1-859) (natural protein)", "values": [{"measurement": "percent reduction of binding against the wild-type ABD", "setting": "[1]", "result": "< 10", "unit": "%"}, {"measurement": "percent reduction of binding against the wild-type ABD", "setting": "[2]", "result": "< 10", "unit": "%"}, {"measurement": "stoichiometry N", "setting": "[3]", "result": 1}, {"measurement": "stoichiometry N", "setting": "[4]", "result": 2}, {"measurement": "stoichiometry N", "setting": "[5]", "result": 1}, {"measurement": "stoichiometry N", "setting": "[6]", "result": 2}, {"measurement": "stoichiometry N", "setting": "[7]", "result": 1}]}
